According to patent US20120244164A1:

Columns and labels:
[1] = target: recombinant human c-Met/Fc chimera (R&D systems) (human); experiment: HGF/c-Met competition Alphascreen, in presence of 5 uM HSA
Human c-Met (human) [2] = target: Human c-Met (human) (UniProt P08581); experiment: competition flow cytometry: 1 nM biotinylated hHGF on A549 cells
[3] = target: recombinant human c-Met/Fc chimera (R&D systems) (human); experiment: HGF/c-Met competition Alphascreen: biotinylated hHGF, human c-Met/Fc
[4] = target: recombinant human c-Met/Fc chimera (R&D systems) (human); experiment: HGF/c-Met competition Alphascreen, in absence of HSA
Human c-Met (human) [5] = target: Human c-Met (human) (UniProt P08581); experiment: cell-based or functional assay
[6] = target: cynomolgus c-Met (cynomolgus monkey); experiment: competition FACS: 0.5 nM biotinylated HGF on BAF3 cells with cynomolgus c-Met
Sequence of cynomolgus c-Met (cynomolgus monkey) (A0M8R7 25-1381 S170N/I621T limits assumed): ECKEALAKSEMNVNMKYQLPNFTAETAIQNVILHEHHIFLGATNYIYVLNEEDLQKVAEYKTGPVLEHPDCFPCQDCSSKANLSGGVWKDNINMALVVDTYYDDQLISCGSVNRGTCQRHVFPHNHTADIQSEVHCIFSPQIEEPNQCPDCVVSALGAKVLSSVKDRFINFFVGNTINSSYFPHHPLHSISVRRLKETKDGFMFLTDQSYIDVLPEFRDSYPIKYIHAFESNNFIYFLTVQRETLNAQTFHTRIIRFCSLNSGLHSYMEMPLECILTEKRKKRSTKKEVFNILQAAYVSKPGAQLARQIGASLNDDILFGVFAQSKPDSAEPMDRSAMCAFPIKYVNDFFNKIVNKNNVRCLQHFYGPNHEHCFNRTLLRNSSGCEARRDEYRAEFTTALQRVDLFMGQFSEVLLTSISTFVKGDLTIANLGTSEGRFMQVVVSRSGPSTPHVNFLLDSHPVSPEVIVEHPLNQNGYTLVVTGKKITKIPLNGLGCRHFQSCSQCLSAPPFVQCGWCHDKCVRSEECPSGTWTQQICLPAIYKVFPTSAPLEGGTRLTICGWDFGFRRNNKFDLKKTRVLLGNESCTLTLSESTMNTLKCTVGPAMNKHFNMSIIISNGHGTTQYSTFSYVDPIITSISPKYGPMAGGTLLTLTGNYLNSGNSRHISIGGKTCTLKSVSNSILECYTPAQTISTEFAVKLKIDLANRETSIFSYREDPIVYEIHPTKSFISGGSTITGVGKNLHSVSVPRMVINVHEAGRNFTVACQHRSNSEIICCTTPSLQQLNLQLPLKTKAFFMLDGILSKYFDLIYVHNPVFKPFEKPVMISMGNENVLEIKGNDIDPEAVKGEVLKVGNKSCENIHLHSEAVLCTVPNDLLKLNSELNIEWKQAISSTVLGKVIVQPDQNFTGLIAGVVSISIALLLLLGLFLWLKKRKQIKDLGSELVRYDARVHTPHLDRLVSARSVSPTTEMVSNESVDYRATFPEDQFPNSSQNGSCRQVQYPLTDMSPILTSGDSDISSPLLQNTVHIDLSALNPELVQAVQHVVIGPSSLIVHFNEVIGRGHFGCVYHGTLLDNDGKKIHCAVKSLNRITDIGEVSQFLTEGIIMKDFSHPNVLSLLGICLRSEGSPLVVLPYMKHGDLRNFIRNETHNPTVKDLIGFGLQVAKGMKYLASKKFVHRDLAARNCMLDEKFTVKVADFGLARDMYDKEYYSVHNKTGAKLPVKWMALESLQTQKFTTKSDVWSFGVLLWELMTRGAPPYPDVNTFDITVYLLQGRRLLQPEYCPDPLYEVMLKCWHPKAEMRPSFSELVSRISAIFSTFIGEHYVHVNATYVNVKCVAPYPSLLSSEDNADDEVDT

Sequence of recombinant human c-Met/Fc chimera (R&D systems) (human) (chain, as listed by the source mutant limits assumed): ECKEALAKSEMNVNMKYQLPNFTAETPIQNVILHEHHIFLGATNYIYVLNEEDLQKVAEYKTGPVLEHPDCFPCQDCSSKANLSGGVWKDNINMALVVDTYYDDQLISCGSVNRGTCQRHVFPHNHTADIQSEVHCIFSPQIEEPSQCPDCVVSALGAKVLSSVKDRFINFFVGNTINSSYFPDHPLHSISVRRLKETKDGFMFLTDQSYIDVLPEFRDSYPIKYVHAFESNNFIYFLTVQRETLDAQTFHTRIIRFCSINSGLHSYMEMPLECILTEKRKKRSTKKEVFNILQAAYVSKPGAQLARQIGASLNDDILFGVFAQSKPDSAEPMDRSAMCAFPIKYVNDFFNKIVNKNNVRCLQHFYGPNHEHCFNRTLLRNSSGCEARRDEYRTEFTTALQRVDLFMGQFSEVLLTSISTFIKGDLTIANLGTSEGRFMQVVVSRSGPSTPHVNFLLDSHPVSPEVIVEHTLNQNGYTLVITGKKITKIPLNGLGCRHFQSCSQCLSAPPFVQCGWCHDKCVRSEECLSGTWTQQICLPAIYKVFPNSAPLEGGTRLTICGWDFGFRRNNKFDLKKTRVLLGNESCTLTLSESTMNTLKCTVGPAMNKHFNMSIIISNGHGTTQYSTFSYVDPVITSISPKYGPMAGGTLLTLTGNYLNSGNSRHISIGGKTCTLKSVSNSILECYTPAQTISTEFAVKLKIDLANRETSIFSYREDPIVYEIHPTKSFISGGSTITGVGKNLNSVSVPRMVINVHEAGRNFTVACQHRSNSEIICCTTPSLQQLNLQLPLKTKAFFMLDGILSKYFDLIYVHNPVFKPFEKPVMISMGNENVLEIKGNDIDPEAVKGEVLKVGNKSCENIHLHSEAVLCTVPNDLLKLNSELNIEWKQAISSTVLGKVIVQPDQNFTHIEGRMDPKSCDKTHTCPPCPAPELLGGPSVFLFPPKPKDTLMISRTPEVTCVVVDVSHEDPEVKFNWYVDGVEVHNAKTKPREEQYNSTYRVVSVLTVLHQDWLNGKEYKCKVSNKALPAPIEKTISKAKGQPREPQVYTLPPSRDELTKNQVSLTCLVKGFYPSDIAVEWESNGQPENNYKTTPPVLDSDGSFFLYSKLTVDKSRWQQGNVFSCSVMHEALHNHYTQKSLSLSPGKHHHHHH
Sequence of Human c-Met (human) (P08581 25-1390 limits assumed): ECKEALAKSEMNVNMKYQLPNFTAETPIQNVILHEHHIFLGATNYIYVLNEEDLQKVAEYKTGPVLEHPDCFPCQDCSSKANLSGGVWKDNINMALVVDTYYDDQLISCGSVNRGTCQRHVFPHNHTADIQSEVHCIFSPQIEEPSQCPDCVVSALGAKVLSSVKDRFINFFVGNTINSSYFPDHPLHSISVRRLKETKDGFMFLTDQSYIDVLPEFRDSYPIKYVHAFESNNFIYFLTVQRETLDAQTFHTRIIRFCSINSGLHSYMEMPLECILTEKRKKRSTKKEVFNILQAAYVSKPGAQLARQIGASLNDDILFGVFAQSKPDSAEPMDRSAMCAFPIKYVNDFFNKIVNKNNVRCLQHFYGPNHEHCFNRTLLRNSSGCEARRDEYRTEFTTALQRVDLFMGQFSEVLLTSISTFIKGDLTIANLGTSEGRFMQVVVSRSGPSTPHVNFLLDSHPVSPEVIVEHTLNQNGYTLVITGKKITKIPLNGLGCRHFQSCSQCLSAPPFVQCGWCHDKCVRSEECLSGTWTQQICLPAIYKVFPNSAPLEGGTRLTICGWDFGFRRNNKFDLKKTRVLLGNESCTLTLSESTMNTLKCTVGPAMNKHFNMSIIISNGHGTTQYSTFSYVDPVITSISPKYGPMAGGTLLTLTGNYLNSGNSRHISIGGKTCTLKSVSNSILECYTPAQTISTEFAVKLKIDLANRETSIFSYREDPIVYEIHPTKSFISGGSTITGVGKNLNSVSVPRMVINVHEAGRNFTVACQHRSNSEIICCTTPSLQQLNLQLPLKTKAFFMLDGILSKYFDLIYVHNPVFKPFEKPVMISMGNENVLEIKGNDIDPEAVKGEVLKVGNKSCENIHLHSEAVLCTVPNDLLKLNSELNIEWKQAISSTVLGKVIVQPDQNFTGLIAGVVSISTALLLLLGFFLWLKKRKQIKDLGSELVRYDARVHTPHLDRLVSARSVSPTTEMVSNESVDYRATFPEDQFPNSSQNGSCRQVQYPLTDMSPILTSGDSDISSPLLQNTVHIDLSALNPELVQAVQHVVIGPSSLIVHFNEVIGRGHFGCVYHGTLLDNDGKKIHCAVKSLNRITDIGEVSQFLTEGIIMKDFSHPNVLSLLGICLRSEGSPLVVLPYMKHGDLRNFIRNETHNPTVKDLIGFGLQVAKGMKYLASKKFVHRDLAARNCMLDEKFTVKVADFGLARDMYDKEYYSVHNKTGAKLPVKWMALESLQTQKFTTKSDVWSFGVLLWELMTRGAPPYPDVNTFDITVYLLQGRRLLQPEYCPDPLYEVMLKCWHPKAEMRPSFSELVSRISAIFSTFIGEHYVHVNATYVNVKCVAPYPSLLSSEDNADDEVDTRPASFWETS

Row | IC50 [1] [nM] | IC50 (Human c-Met (human) [2]) [nM] | % inhibition [3] [%] | IC50 [3] [nM] | IC50 [4] [nM] | % inhibition of HGF-dependent A549 cell migration (Human c-Met (human) [5]) [%] | % inhibition of HGF-dependent c-Met phosphorylation, A549 cells, experiment 1 (Human c-Met (human) [5]) [%] | % inhibition of HGF-dependent c-Met phosphorylation, A549 cells, experiment 2 (Human c-Met (human) [5]) [%] | % inhibition of HGF-dependent proliferation of BxPC3 cells (Human c-Met (human) [5]) [%] | IC50, HGF-dependent A549 cell migration (Human c-Met (human) [5]) [nM] | IC50, HGF-dependent c-Met phosphorylation, A549 cells, experiment 1 (Human c-Met (human) [5]) [nM] | IC50, HGF-dependent c-Met phosphorylation, A549 cells, experiment 2 (Human c-Met (human) [5]) [nM] | IC50, HGF-dependent proliferation of BxPC3 cells (Human c-Met (human) [5]) [nM] | IC50 [6] [nM] | concentration of maximal c-Met phosphorylation in A549 cells (Human c-Met (human) [5]) [nM] | Substance
1 | 3.1 | 11.3 | 101 | 1.3 | 3.2 | 112 | 96.4 | 95.9 | 94.8 | 5.48 | 10.4 | 9.09 | 34.3 |  |  | anti-c-Met antibody fragment 5D5 Fab from mAb
2 |  | 2.72 |  |  |  |  |  |  |  |  |  |  |  | 6.7 | 37 | anti-c-Met antibody 5D5
